According to publication PMC11685440:

Molecular target: 6xHis-MBP-PmARF1^DBD (Penium margaritaceum AB-class ARF1 DNA-binding domain) (Penium margaritaceum)
Test: SEC-MALS; 6xHis-MBP-PmARF1^DBD at 1 mg/ml in 1x PBS, Superdex 200 Increase 10/300 GL, room temperature

stoichiometry N: 2
Substance: 6xHis-MBP-PmARF1^DBD (Penium margaritaceum AB-class ARF1 DNA-binding domain) (domain or fragment)
